Source: article PMC11151596, “Improving the enzymatic activity and stability of N-carbamoyl hydrolase using deep learning approach” (Microbial Cell Factories, 2024)

system: T1, NC(=O)NC(C(=O)O)c1ccc(O)cc1; experiment: HPLC of D-HPG formed, double reciprocal plot; type: biochemical, Agrobacterium sp. KNK712; details: 50 mM Tris-HCl pH 7.5, 65 °C, 0.1-10.0 mM CpHPG
T1 construct: pET-28a(+)-Case, N- and C-terminal His6 tags, expressed in E. coli BL21(DE3), Ni-NTA purified, about 37 kDa
Description: HPLC of D-HPG formed, double reciprocal plot on DCase (N-carbamoyl-D-amino acid amidohydrolase, EC 3.5.1.77; N-carbamoyl hydrolase)

“DCase (N-carbamoyl-D-amino acid amidohydrolase, EC 3.5.1.77; N-carbamoyl hydrolase) (Agrobacterium sp. KNK712; A302C/Q4C)” and “DCase (N-carbamoyl-D-amino acid amidohydrolase, EC 3.5.1.77; N-carbamoyl hydrolase) (Agrobacterium sp. KNK712; A302C/Q4C/T212A)” are within error of each other in Km: 2560 ± 150 µM for the first, 2380 ± 620 µM for the second.

“DCase (N-carbamoyl-D-amino acid amidohydrolase, EC 3.5.1.77; N-carbamoyl hydrolase) (Agrobacterium sp. KNK712; A302C/Q4C/T212G)” and “DCase (N-carbamoyl-D-amino acid amidohydrolase, EC 3.5.1.77; N-carbamoyl hydrolase) (Agrobacterium sp. KNK712; A302C/Q4C/T212S)” are within error of each other in Km: 2340 ± 260 µM for the first, 2120 ± 260 µM for the second.

“DCase (N-carbamoyl-D-amino acid amidohydrolase, EC 3.5.1.77; N-carbamoyl hydrolase) (Agrobacterium sp. KNK712; A302C/Q4C/T212V)” and “DCase (N-carbamoyl-D-amino acid amidohydrolase, EC 3.5.1.77; N-carbamoyl hydrolase) (Agrobacterium sp. KNK712; Q4C)” are within error of each other in Km: 2190 ± 260 µM for the first, 2440 ± 460 µM for the second.

“DCase (N-carbamoyl-D-amino acid amidohydrolase, EC 3.5.1.77; N-carbamoyl hydrolase) (Agrobacterium sp. KNK712; A302C/Q4C)” and “DCase (N-carbamoyl-D-amino acid amidohydrolase, EC 3.5.1.77; N-carbamoyl hydrolase) (Agrobacterium sp. KNK712; A302C/Q4C/T212A)” are within error of each other in kcat: 29.2 ± 0.733 s⁻¹ for the first, 30.4 ± 0.703 s⁻¹ for the second.

“DCase (N-carbamoyl-D-amino acid amidohydrolase, EC 3.5.1.77; N-carbamoyl hydrolase) (Agrobacterium sp. KNK712; A302C/Q4C/T212G)” and “DCase (N-carbamoyl-D-amino acid amidohydrolase, EC 3.5.1.77; N-carbamoyl hydrolase) (Agrobacterium sp. KNK712; A302C/Q4C/T212S)” are within 1.5-fold of each other in kcat: 36.7 ± 0.658 s⁻¹ for the first, 38.1 ± 0.658 s⁻¹ for the second.

First: DCase (N-carbamoyl-D-amino acid amidohydrolase, EC 3.5.1.77; N-carbamoyl hydrolase) (Agrobacterium sp. KNK712; A302C/Q4C/T212V)
Second: DCase (N-carbamoyl-D-amino acid amidohydrolase, EC 3.5.1.77; N-carbamoyl hydrolase) (Agrobacterium sp. KNK712; Q4C)
The kcat of the first is 2.6-fold higher: 32.9 ± 0.658 s⁻¹ for the first, 12.6 ± 0.371 s⁻¹ for the second.

“DCase (N-carbamoyl-D-amino acid amidohydrolase, EC 3.5.1.77; N-carbamoyl hydrolase) (Agrobacterium sp. KNK712; A302C/Q4C)” and “DCase (N-carbamoyl-D-amino acid amidohydrolase, EC 3.5.1.77; N-carbamoyl hydrolase) (Agrobacterium sp. KNK712; A302C/Q4C/T212A)” are within 1.5-fold of each other in kcat/Km: 11400 ± 516 M⁻¹ s⁻¹ for the first, 12800 ± 572 M⁻¹ s⁻¹ for the second.

“DCase (N-carbamoyl-D-amino acid amidohydrolase, EC 3.5.1.77; N-carbamoyl hydrolase) (Agrobacterium sp. KNK712; A302C/Q4C/T212G)” and “DCase (N-carbamoyl-D-amino acid amidohydrolase, EC 3.5.1.77; N-carbamoyl hydrolase) (Agrobacterium sp. KNK712; A302C/Q4C/T212S)” are within 1.5-fold of each other in kcat/Km: 15700 ± 939 M⁻¹ s⁻¹ for the first, 18000 ± 722 M⁻¹ s⁻¹ for the second.

Going from “DCase (N-carbamoyl-D-amino acid amidohydrolase, EC 3.5.1.77; N-carbamoyl hydrolase) (Agrobacterium sp. KNK712; A302C/Q4C/T212V)” to “DCase (N-carbamoyl-D-amino acid amidohydrolase, EC 3.5.1.77; N-carbamoyl hydrolase) (Agrobacterium sp. KNK712; Q4C)”, the kcat/Km falls from 15000 ± 1200 M⁻¹ s⁻¹ to 5150 ± 265 M⁻¹ s⁻¹ (2.9-fold).
